Measurements: the nanobody polyreactivity screen of Harvey et al. (2022)

Test: yeast display, Sf9 membrane polyspecificity reagent, FACS + sequencing; frameworks hold sequencing errors
Procedure, shortened: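 After 36–48 hours of galactose induction, yeast (Saccharomyces cerevisiae BJ5465) displaying a synthetic nanobody library were stained at 4 °C for 1 hour with 10% biotinylated, detergent-solubilized Sf9 membrane reagent. Streptavidin microbeads enriched the stained cells before FACS sorting into low and high (top ~1%) gates on anti-HA and streptavidin fluorescence. Each clone's polyreactivity label reflects its gate of origin.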

Row | Sequence | polyreactivity (PSR sort gate)
1 | QVQLVESGGGLVQAGGSLRLSCDASGSIFYGYTMGWYRQDPGKERELVAAIRKSGGSTNYADSVKGRFTISRDNAKNTVYLQMNSLKPEDTAVYYCAASYYRGRGYYWGQGTQVTVSS | high polyreactivity
2 | QVQHVESGGGLVQAGGSLRLSCAASGSIFTGNAMGWYRQAPGKEREFVAAITNGGITNYADSVKGRFTISRDNAKNTVYLQMNSLKPEDTAVYYCAADYVDFYSFRRFDYWGQGTQVTVSS | low polyreactivity
3 | QVQLVESGGGLVQAGGSLRLSCAASGFTLIDYAMGWYRQAPGKERELVAAISGSGGRTYYADSVKGRFTISRDNAKNTVYLQMNSLKPEDTAVYYCAAGRRHVYKRRRYDYCGQGTQVTVSS | high polyreactivity
4 | QVQLVESGGGVVQAGGSLRLSCAASGFIISYNVMVWYRQAPGKERELVAAISSSGGSTYYADSVKGRFTISRDNAKNTVYLQMNSLKPEDTAVYYCATRVSRSFRAYDYWGQRTQVTVSS | high polyreactivity
5 | QVQLVESGGGLVQAGGSLRLSCAASGRIIGFNAMGWYRQAPGKERELVASIRTTGGSTRYADSVKGRFTISRDNAKNTVYLQMNSLKPEDTAVYYCAARSRLRYLYDYWGQVTQVTVSS | high polyreactivity
6 | QVQLVESGGGLVQAGGSLRLSCAASGFTFYDYAMGWYRQAPGKQREFVAAITWSGSSTYYADSVKGRFTISRDNAMNTVYLQMKSMKPEDTEVYYCAVGPFRRRGHYPTYYRYGYWGQGTEVTVSS | high polyreactivity
7 | QVQLVESGGGLVQAGGSLRLSCAASGFTFSWNTMGWYRQAPGKERELVATISGSGGRTYYADSVKGRFTISRDKAKNTVYLQLNSLKPEDTAVYYCAKRRASRYYWGQGTQVTVSS | high polyreactivity
8 | QVQLVESGGGLVQAGGSLRLSCAASGLTLSYNAMGWYRQAPGKERELVAAIRSGGSTNYADSVKGRFTISRDNAKNTVYLQMNSLKPEDTAVYYCAARFRYLPYRYGRYQSGYEYWGLGTQVTVSS | high polyreactivity
9 | QVQLVESGGGLVQAGGSLRLSCAASGRTFLIYAMGWYRQAPGKERELVAGITRGSTTYADSVKGRFTISRDNAKNTVYLQMNSLKPEDTEVYYCAARNYSVATYGEYDYWGQGTQVTVSS | high polyreactivity
10 | QVQLVESGGGLVQAGGSLRLSCAASGRTFPKYAMGWYRQATGKERELVAAISSSGGNTYYADSVKGRFTISRDKAKTTVYLQMNSLTPEDTAVYYCAARLPRGAYYYWGQGTQLTVSS | high polyreactivity
11 | QVQLVESGGGLVQAGGSLRLSCAASGSTFGVYAMGWYRQAPGKEREFVAAISSSDGSTYYADSVKGRFTISRDNAKNTVYLQMNSLKPEDTAVYYCAKRGGYIYYAVTFTAEHGYWGQGTQVTVSS | low polyreactivity
12 | QVQLVESGGGLVQAGGSLRLSCAASGSTFSVYAMGWYRQAPGTERELVAAITWSGGSTYYADSVKGRFTISRDNAKNTDYLQMNSLKPEDTAVYDCNAEGYYVWGITTYWLHQYGYWGQGTQVTVSS | low polyreactivity
13 | QVQLVESGGGLVQAGGSLRLSCAASGFILYRYAMGWDRQAPGKDRELVAAITRRGGSTYYADSVKGRFTISRDNAKNTVYLQMNSLKPEDTAVYYCNADIGVYGTSDLDYWGQGTQVTLSS | high polyreactivity
14 | QVQLVESGGGLVQAGGNLRLSCAASGLIFGGYAMGWYRPAPGKERELVAAISRTGGRTYYADSVKVRFTISRDNAKNTVYLQMNSLKPEDTAVYYCATKRWWVRYDYWGQGTQVTVSS | high polyreactivity
15 | QVQLVESGGGLVQAGGSLRLSCAASGRIKYNVMGWYRQAPGKEMELVAAITRSAGRTYYADSVKGRFSISRDNAKNTVYLQMNSLKPEHTGGYYCAAQAERYGYVYWGQGTQVTVSS | low polyreactivity
16 | QVHLVESVGGLVQAGGSLRLSSPASGGTLWVNTMGWYRQAPGKERELVAAISRRGGSTYYADSVKGRFTISRDNAKNTVYLQMNSRKPEDTAVYYCNARENAVSLRDYWGQGTQVTVSS | high polyreactivity
17 | QVQLVESGGGLVQAGGSLRLSCAASGIIFHRYAMGWYRQAPGKERELVAAISWNGGSTYYADSVKGRFTISRDNAKNTVYLQMNSLKPEDTAVYYCAARKLYSNISGYWGQGTLVTVSS | high polyreactivity
18 | QVQLVESGGGLVQAGGSLRLSCAASGFIFKSYAMGWYRQAPGKERELVAAISGRGGSTYYADSVKGRFTISRDNAKNTVYLQMNSLKPEDTAVYYCNVGPSTYYQYDYWGQGTQVTVSS | high polyreactivity
19 | QVQLVESGGGLVQAGGSLRLSCAASGSTFAAYAMGWYRPAPGTERELVAAISASGGSTYYADSVKGRFTISRDNEKNTVYLQMNSLKPEDTAVYYCAARVFRGLGEYYWGQGTQVTVSS | high polyreactivity
20 | QVQLVDSGGGLVQAGGSLRLSCAASGSTFVYNTMGWYSHAPGKERELVAAISYRGSTYYADSVKGRFTISRENAKNTVYLQMNSLKPEDTAVYYCNGPRRQYEYDFWGLGTQVTVSS | high polyreactivity
21 | QVQLVESGGGLVQAGGSLRLSCPASGRIFPRYAMGWYRPAPGKERELVARITRRGGITYYADSVKGRFTISRDNAQNTVYLEMNSLKPEDTAVYYCNVDYYRGGDFSYGYDYWGQGTQLTVSS | high polyreactivity

Row | Sequence | polyreactivity (PSR sort gate)
22 | QVQLVESGGGLVQAGGSLRLSCAASGSIFFPNAMGWYRQAPGKERELVAAITSTSTNYADSVKGRCTISRDNAKNTVYLQMNSLKPEDTAVYYCAADGEFRRAWYEGDYWGQGTQVTVSS | low polyreactivity
23 | QVQLVESGGGLVQAGGSLRLSCAASGRIFRLYAMGWYRQAPGKEREFVATITWIGGRTYYADSVTGRFTISRDNAKNTVYLQMNSLKPEDTAVYYCAADPGYTYEYWGQGTQVTVSS | low polyreactivity
24 | QVQLVESGGGLVQAGGSLRLSCAASGSISGYYVMGWYRQAPGKERELVAAITWRGGSTYYADSVKGRFTISRDNAKNTVYLQMNSLKPEDTAVYYCNKVPGRRSTFEYWGQGTQVTVSS | high polyreactivity
25 | QVQLVESGGGLVQAGGSLRLSYAASGFIFRYYAMGWYRQAPGKERELVAAIKASGGRTYYADSVKGRFTISRDNERNTVYLQINSLKPEDTAVYYCAASRSYQTFDYWGQGTQVTVSS | high polyreactivity
26 | QVQLVESGGGLVQAGGSLRLSCAASGSTIPPYAMGWYRQAPGNERELVAAITSGGSTYYADSVKGRFTISRDNAKNTVYLQMNSLKPEDTAVYYCAASWDPWEYDYWGQGTQVTVSS | low polyreactivity
27 | QVQLVESGGGLVQAGGSLRLSCAASGRTFNGYAMGWYRQAPGKERELVASISRDGSTNYADSVKGRFTISRDNAKNTVYLQMNSLKPEDTAVYYCAADIWYYRYPIYYYSYDYWGQGTQVTVSS | low polyreactivity
28 | QVQLVESGGGLVQAGGSLRLSCAASGRTLSTNGMGWYRQAPGKERELVATITRRGGRTYYADSVKGRFTISRDNAKNTVYLQMNSLKPEDTAVYYCATEQADRRVTYNYWGQGTQVTVSS | high polyreactivity
29 | QVQLEESGGGLVQAGGSLRLTCAATGRIYFYGMGRYRQAPGNERELVATITSVSNTYYADSVKGRFTKSRDNAKNTVYLVMNSLKPEETAVYYCAAVTRGNWVYYWGQRTQVTVSS | high polyreactivity
30 | QVQLVESGGGLVQAGGSLRLSCAASGRIFQFNFMGWYRQAPGKERELVAAISGSGGSTYADSVKGRFTISRDNAKNTVYLQMNSLKPEDTAVYYCATEYVVYRPRGRLQKFDYWGQGTQVTVSS | low polyreactivity
31 | QVQLVESGGGLVQAGGSLRLSCAASGRTFKYYAMGWYRQAPGKERELVAAISHSGGSTYYADSVKGRFTISRDNAKNTVYLQMNSLKPEDTAVYYCAADHGDGNYPYYYWGQGTQVTVSS | high polyreactivity
32 | QVQLVESGGALVQAGGSHRLSCAASGSTFATYAMGWYRQAPGNEREFVAVITRGGRTYYADSVKGRFTISRDNAKITVYLQMNSLKPEDTAVYYCAAGSGNFVTRYRYGYWGQGTQVTVSS | high polyreactivity
33 | QVQIVESGGGLVQAAGSLRLSCAASGSTLAPYAMGWYRQAPGKERELVASINWGGTTTYYADSVKGRFTNSRDNAKNKVYLQMNSLKPEDTAVYYCAALGLSWGRSGYYYEYYYWGQGTQVTVSS | high polyreactivity
34 | QVQLVESGGGLVQAGGSLRLSCAASGFTFNYYAMGWYRQAPGKERELVAGITRSGVSTNYADSVKGRFTISRDNAKNTVYLQMNSLKPEDTAVYYCAREEGRRYRGWPYVYAPQHDYWGQGTQVTVSS | high polyreactivity
35 | QVQLVESGGGLVQAGGSLRLSCAASGNTCTPNGMGWYRQAPGKEREFVAAITWSGGRTHYADSVKGRFTISRDNAKNTVYLQMNSLKPEDTAVYYCAARRSHFEYGTYSGYDYYWGQGTQVTVSS | high polyreactivity
36 | QVQLVESGGGLVQAGGSLRLSCAASGFTFEDYAMGWYRQAPGTERELVAAISSRGTSTYYADSVKGRFTISRDNAKNTVYLQMNSLKPEDTAVYYFNKRGWYPYGYWGQGTQVTVSS | high polyreactivity
37 | QVQLVDSGGGLVQAGGSLRLSCAASGIIFHFNDLGLYIQAPGKERELVAAIDSTGSTNYSDSVKGRYTISRDNAKITVYLQLNRVKPEDTAVYNCAVLNHRVDAVLTRYYYWGQGTKVTVSS | low polyreactivity
38 | QVQLVESGGGLVQAGGSLRLSCAASGAIFSWNAMGWYRQAPGKERELVATITWNGGRTYYADSVKGRFTISRDNAKKTVYLQMNSLKPEATAVYYCAARNTQPASYGYGYWGQGTQVTVSS | high polyreactivity
39 | QVQLVESGGGLVQAGGSLRLSCAASGYIFTIYAMGWYRQAPAKEREFVAAITWSGGRTYYADSVKGRFTISRDTAKNTVYLQMNSLKPEDSAVDYGAARVANYLSQMYYWGQGTQVTVSS | high polyreactivity
40 | QVQLVESGGGLVQPGGSLRLSCAASGFTFIRNVMGWYRQAPGKERELVARITYSSGSTYYADSVKGRFTISRDNAKNTVYLQMNSLKPEDTAVYYCAVRLYSYLYNPFNYWGQGTQVTVSS | high polyreactivity
41 | QVQLVESGGGLVQAGGSLRLSCAASGRTFRSYDMGWYRQAPGKERELVAAISEDGGYTYYADSVKGRFTISRDNAKITVYLQMNSLKPEDTAVYYCAKDRPGPLRWWFLYGYWGQGTQGTVSS | low polyreactivity
